{"source": "patent US20200046811", "target": "T1, Recombinant Human FGF23 (Fibroblast Growth Factor 23) (UniProt Q9GZV9)", "T1 sequence": "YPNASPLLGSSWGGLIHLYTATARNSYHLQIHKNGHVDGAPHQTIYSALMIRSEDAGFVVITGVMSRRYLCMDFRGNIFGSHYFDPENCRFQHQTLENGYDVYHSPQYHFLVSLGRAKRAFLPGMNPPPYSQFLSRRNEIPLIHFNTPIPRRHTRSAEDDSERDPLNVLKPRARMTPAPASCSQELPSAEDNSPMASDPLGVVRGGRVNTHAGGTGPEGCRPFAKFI"}
{"substance": "Recombinant human uPA (urokinase plasminogen activator)", "values": [{"measurement": "in vitro proteolysis of FGF23, silver stained SDS-PAGE gel", "value": "smaller fragments are generated on a silver stained SDS-PAGE gel indicating proteolytic cleavage"}]}
